Measurements: patent publication US20230157952A1, “METHOD FOR IMPROVING THE STABILITY OF A PHARMACEUTICAL COMPOSITION COMPRISING A HIGH PENETRATION DRUG, AND THE PHARMACEUTICAL COMPOSITION OBTAINED THEREFROM” (Techfields Inc., priority 2020, published 2023)
Non-standard residues stand in square brackets, D forms with d. Arg(NO2) = N=C(NCCC[C@H](N)C(=O)O)N[N+](=O)[O-]

Experiment: Effect of pH value on the stability of the solution (purity)
Format: physicochemical
Conditions: 5% solution
[1] = 25% ethanol (after multiple recrystalization), pH 3.7, 25° C.
[2] = 25% ethanol with 0.5 equivalent sodium acetate, pH 3.7, 25° C.
[3] = 25% ethanol with 1 equivalent sodium acetate, pH 4.6, 25° C.
[4] = 25% ethanol with 1.5 equivalent sodium acetate, pH 5.6, 25° C.
[5] = 25% ethanol with HCl, pH 2.0, 25° C.
[6] = 25% ethanol with NaOH, pH 7, 25° C.
[7] = 25% ethanol with NaOH, pH 8, 25° C.

Substance	Purity(%) at day 1 [1] [%]	Purity(%) at day 30 [1] [%]	Purity(%) at day 90 [1] [%]	Purity(%) at day 180 [1] [%]	Purity(%) at day 1 [2] [%]	Purity(%) at day 30 [2] [%]	Purity(%) at day 90 [2] [%]	Purity(%) at day 180 [2] [%]	Purity(%) at day 1 [3] [%]	Purity(%) at day 30 [3] [%]	Purity(%) at day 90 [3] [%]	Purity(%) at day 180 [3] [%]	Purity(%) at day 1 [4] [%]	Purity(%) at day 30 [4] [%]	Purity(%) at day 90 [4] [%]	Purity(%) at day 180 [4] [%]	Purity(%) at day 1 [5] [%]	Purity(%) at day 30 [5] [%]	Purity(%) at day 90 [5] [%]	Purity(%) at day 180 [5] [%]	further results
H-Ala-Pro-Gly-Pro-Arg(NO2)—OCH2CH3•HCl salt (H-APGP[Arg(NO2)]-OEt; also: HCl salt)	98.1 ± 0.2	97.3 ± 0.2	95.0 ± 0.1	91.2 ± 0.3	98.2 ± 0.1	97.4 ± 0.2	95.1 ± 0.3	91.2 ± 0.3	98.2 ± 0.2	97.3 ± 0.2	95.0 ± 0.3	91.1 ± 0.3	98.1 ± 0.2	94.7 ± 0.2	91.5 ± 0.3	83.7 ± 0.3	97.8 ± 0.1	84.2 ± 0.2	69.6 ± 0.2	39.9 ± 0.3	Purity(%) at day 1 [6]: 97.9 ± 0.2%; Purity(%) at day 30 [6]: 55.2 ± 0.3%; Purity(%) at day 90 [6]: 31.3 ± 0.3%; Purity(%) at day 180 [6]: 0%; Purity(%) at day 1 [7]: 97.5 ± 0.1%; Purity(%) at day 30 [7]: 22.6 ± 0.2%; Purity(%) at day 90 [7]: 0%; Purity(%) at day 180 [7]: 0%; Purity(%) at day 1 (25% ethanol, pH 3.0, 25° C.): 98.1 ± 0.2%; Purity(%) at day 30 (25% ethanol, pH 3.0, 25° C.): 95.7 ± 0.3%; Purity(%) at day 90 (25% ethanol, pH 3.0, 25° C.): 92.8 ± 0.3%; Purity(%) at day 180 (25% ethanol, pH 3.0, 25° C.): 86.0 ± 0.3%
H-Tyr-Gly-Gly-Phe-Met-OCH(CH3)2•HCl salt	98.9 ± 0.2	98.3 ± 0.2	97.2 ± 0.1	95.4 ± 0.1	98.9 ± 0.1	98.4 ± 0.1	97.3 ± 0.2	95.5 ± 0.2	98.9 ± 0.2	98.4 ± 0.2	97.4 ± 0.2	95.5 ± 0.2	98.8 ± 0.2	97.2 ± 0.2	94.1 ± 0.1	88.7 ± 0.2	98.5 ± 0.1	92.1 ± 0.2	85.1 ± 0.2	71.9 ± 0.2	Purity(%) at day 360 [1]: 92.3 ± 0.2%; Purity(%) at day 360 [2]: 92.5 ± 0.2%; Purity(%) at day 360 [3]: 92.4 ± 0.2%; Purity(%) at day 360 [4]: 81.1 ± 0.3%; Purity(%) at day 360 [5]: 51.8 ± 0.2%; Purity(%) at day 1 [6]: 98.5 ± 0.3%; Purity(%) at day 30 [6]: 77.9 ± 0.2%; Purity(%) at day 90 [6]: 43.6 ± 0.2%; Purity(%) at day 180 [6]: 24.3 ± 0.3%; Purity(%) at day 360 [6]: 0%; Purity(%) at day 1 [7]: 98.2 ± 0.2%; Purity(%) at day 30 [7]: 56.2 ± 0.2%; Purity(%) at day 90 [7]: 33.3 ± 0.3%; Purity(%) at day 180 [7]: 5.8 ± 0.3%; Purity(%) at day 360 [7]: 0%; Purity(%) at day 1 (25% ethanol, pH 3.0, 25° C.): 98.7 ± 0.2%; Purity(%) at day 30 (25% ethanol, pH 3.0, 25° C.): 97.9 ± 0.2%; Purity(%) at day 90 (25% ethanol, pH 3.0, 25° C.): 95.1 ± 0.1%; Purity(%) at day 180 (25% ethanol, pH 3.0, 25° C.): 90.9 ± 0.2%; Purity(%) at day 360 (25% ethanol, pH 3.0, 25° C.): 82.8 ± 0.3%
